Experimental data from patent publication US11904004B2, “Anti-CD277 antibodies” (INSTITUT NATIONAL DE LA SANTE ET DE LA RECHERCHE MEDICALE …, priority 2010, dated 2024).

Columns and labels:
Vγ9Vδ2 T cells [1] = test: Stimulation and expansion assay of Vγ9Vδ2 T cells from PBMC; assay type: cell-based, human
Method: P815 (mouse mastocytoma cell line), K562 (chronic myeloid leukaemia cell line), Raji and Daudi (Burkitt lymphoma cell lines) were cultured in RPMI 1640 medium (Invitrogen) and 10% foetal calf serum (FCS) (Eurobio). The PBMC from healthy donors were distributed at 106/ml in 24-well culture plates at 37° C. in 5% CO2 in RPMI 1640 medium and 10% FCS. Polyclonal Vγ9Vδ2 T cells were specifically expanded with 3 μmol/l of Phosphostim (BrHPP molecule, Innate Pharma, Marseille, France) and 100 U/ml IL-2 (Chiron, Basel, Switzerland) for 12 days. Phosphostim was added once at the onset of the culture. Every 2 days, one-half of the culture medium volume was replaced with fresh medium containing 100 U/ml IL-2.
PBMC were plated and stimulated as described in the paragraph: cell lines and expansion of γδ T cells, except cells were stimulated with anti-CD277 mAbs (10 μg/ml); or control isotypes (10 μg/ml); and with or without BrHPP at different concentrations. […] Percentages of Vγ9Vδ2 were measured the first day and the last day of culture as described above. Expanded γδ T cells effectors were stimulated with or without different doses of BrHPP added in anti-CD277 mAbs at 10 μg/ml; or with OKT3 (4 ng/ml) associated with anti-BT3 19.5 mAb in different concentrations. Activation of degranulation was measured by CD107 labelling assay as described above.

primary AML blasts [2] = test: Chromium release assay, lysis of primary AML blasts by Vγ9Vδ2 T cells; assay type: cell-based, human
Method: Effector γδ T cells were established and maintained as previously described^28. PBMC from HV were stimulated with ZOL (1 μm) and rhlL-2 (200 IU/ml) at Day 0. From Day 5, rhIL-2 was renewed every two days and cells were kept at 1.5×10^6/m1 for 15 days. NK cells were isolated using EASYSEP® Human NK cell enrichment kit (StemCell Technologies). The purity of γδ T cells and NK cells was determined by flow cytometry and respectively greater than 80% and 98%. The Burkitt lymphoma cell line, DAUDI, the human AML cell line, U937, and the erythroleukemic cell line, K562, were obtained from the American Type Culture Collection and cultured (0.5×10^6/ml) in RPMI 1640 medium with 10% FCS. BTN3A Knock-down HEK293FT cells (sh #284; clone #30) were provided by E.Scotet (Inserm U892, Nantes), cultured and transfected with BTN3A1, BTN3A2, BTN3A3 mutated cDNA-containing plasmids, as described^23.
0.5×10^6 target cells were incubated with 50 pCi of ^51Cr (Perkin-Elmer) for AML blasts and 10 pCi for DAUDI and K562 cells for 90 minutes and mixed with effector cells in a Effector:Target (E:T) ratio of […]. After 4 hours of incubation at 37° C., 50p1 supernatant of each sample was transferred in LUMA® plates and radioactivity was determined by a gamma counter. The percentage of specific lysis was calculated using the formula [(experimental−spontaneous release/total−spontaneous release)×100] and expressed as the mean of triplicate.

primary AML blasts [3] = test: NSG mouse/human primary AML blasts xenograft model; assay type: in vivo; details: NSG mice, UPN09 blasts; 250 μg mAb with 15×10^6 Vγ9Vδ2 T cells i.v. twice a week, weeks 8 to 10 post-graft
Description: NOD-SCID common γ-chain knockout mice (NSG) were purchased from Charles River France or bred in-house and maintained under specific pathogen-free conditions. All animal procedures were in accordance with protocols approved by the local Committee for Animal Experiments. Healthy 6- to 8-weeks-old female mice (n=15) received an injection of 0.2×10^6 luciferase transduced-U937 cells on Day 0, as described^13, and were then randomly assigned in 5 groups to receive intravenous injections of post-expansion-purified Vγ9Vδ2 T cells on Day 1 (30×10^6, 98.8% CD3+TCRVδ2+; Unité de Thérapie Cellulaire et Génique de Nantes) alone or combined to anti-BTN3A 20.1 mAb (250 μg) on Day 2 and 6. Controls comprised NSG mice infused with PBS, or anti-BTN3A 20.1 mAb alone. Mice were imaged with a Photon Imager (Biospace Lab, Paris, France) at different days. For the Primary AML blasts model, NSG mice received sublethal irradiation (2 Gy). On the day after, they received 1×10^6 of CD3-depleted blasts (CD3 depletion Kit, Miltenyi Biotec) isolated from UPN09. […] The peripheral blood number of blasts was quantified during engraftment, before and after treatment by Flow Cytometry (supplementary data 1B). Mice were sacrificed at week 11th post-graft and the number of blasts was quantified in their Bone Marrow (BM).

Vγ9Vδ2 T cells [4] = test: Flow cytometry of Vγ9Vδ2 T cells co-cultured with AML blasts (trogocytosis, CD107a, cytokines); assay type: cell-based, human
Method: 2×10^5 PBMC were washed in PBS (Cambrex Bio Science) and incubated at 4° C. for 20 min with specified mAb. Following incubation and washing, samples were analyzed on LSRFORTESSA® or FACS CANTO® II (Becton Dickinson) using DIVA® software (BD bioscience, Mountain View, Calif.). For analysis of CD107 expression, γδ T cells were incubated at 37° C. in the presence of anti-CD107a and GOLGISTOP® with or without anti-BTN3A 20.1 mAb. After 4 hours, cells were collected, washed in PBS and analyzed by flow cytometry. To study cytokine production, cells were further permeabilized with PERMWASH® (BD bioscience) to allow intracellular staining with labeled antibodies. Trogocytosis of PKH67 (Sigma Aldrich) labeled blasts by γδ T cells was quantified as previously described^29.

[5] = 4-hour co-culture with AML blasts

B1: mAb 20.1: murine anti-CD277 antibody obtainable from the hybridoma CNCM I-4402; agonist (antibody, V domains shown)
VH: QVQLQQSGAELVKPGASVKLSCKASGYTFTRYYLYWVKQRPGQGLEWIGEINPNNGGTKFNEKFKSKATLTVDKSSRTTYIQLSSLTSEDSAVYYCSREDDYDGTPDAMDYWGQGTAVTVSS
VL: DIQMNQSPSSLSASLGDTITITCHASQNINLWLSWYQQRPGNIPKLLIYRASNLHTGVPSRFSGSGSATGFTLTISSLQPEDIATYYCQQGHSYPYTFGGGTKLDIK
proliferation of Vγ9Vδ2 cells (CFSE) (Vγ9Vδ2 T cells [1]; PBMC + IL-2): associated with the proliferation
expansion of Vγ9Vδ2 T cells (Vγ9Vδ2 T cells [1]; PBMC + IL-2, 15 days of culture): expanded
Vγ9Vδ2 T cell lysis of ZOL-resistant or ZOL-poorly responsive AML blasts (primary AML blasts [2]; E:T 30:1): significantly enhanced
enhancement of Vγ9Vδ2 T cells lysis of AML blasts compared with BrHpp (primary AML blasts [2]; E:T 30:1, ZOL 45 μM O/N, 20.1 mAb 10 μg/ml, BrHpp 2 μM): significantly more efficient
specific lysis of AML blasts (primary AML blasts [2]; Vγ9Vδ2 T cells pre-incubated with mAb (10 μg/ml, 90 minutes), washed): ~4.36±2.11%
AML blasts lysis by Vγ9Vδ2 T cells, addition to ZOL (primary AML blasts [2]; anti-BTN3A 20.1 mAb added to ZOL): poor but significant
specific lysis of AML blasts (primary AML blasts [2]; blasts pre-incubated with mAb (10 μg/ml, 90 minutes), washed): 22.92±7.64%
sensitization of blasts from UPN09 to Vγ9Vδ2 T cells lysis in vitro (primary AML blasts [2]; data not shown): highly sensitized
specific lysis of AML blasts (primary AML blasts [2]; simultaneous incubation of effector cells, target cells and mAb): 35.95±1.16%
circulating blasts (Percentage of variation of the absolute number of blasts in blood before and 4 days after the end of treatment) (primary AML blasts [3]): 37.38±39.89
cytokine production of IFNγ by Vγ9Vδ2 T cells (Vγ9Vδ2 T cells [4]; [5]): greater
cytokine production of TNFα by Vγ9Vδ2 T cells (Vγ9Vδ2 T cells [4]; [5]): greater
degranulation assessed by the expression of CD107a (Vγ9Vδ2 T cells [4]; [5]): greater ability to degranulate
trogocytosis of AML blasts by Vγ9Vδ2 T cells (Vγ9Vδ2 T cells [4]; 1 hour co-culture, vs IgG1): significantly enhanced
